Columns and labels:
[1] = target: MICB*005 (human); assay: kinetic binding assay (ka, kd, Rmax in RU; method not named)
[2] = target: MICA*008 (human); assay: as above
[3] = target: T1, Human CD64 (FcγRI) (human, UniProt P12314 16-288, limits assumed); assay: as above
[4] = target: T2, Human CD32a (FcγRIIA) (human, UniProt P12318 34-217, limits assumed); assay: as above
T2 sequence (looked up): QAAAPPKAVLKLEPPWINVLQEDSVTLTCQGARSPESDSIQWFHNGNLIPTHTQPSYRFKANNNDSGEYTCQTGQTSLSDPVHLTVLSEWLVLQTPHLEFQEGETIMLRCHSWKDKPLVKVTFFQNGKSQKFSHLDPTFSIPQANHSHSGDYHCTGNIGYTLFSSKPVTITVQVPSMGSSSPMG

[5] = target: T1, Human CD64 (FcγRI); assay: kinetic binding assay (Table 2); ND = not detectable
[6] = target: T2, Human CD32a (FcγRIIA); assay: as above

T1 sequence (P12314 16-288 limits assumed): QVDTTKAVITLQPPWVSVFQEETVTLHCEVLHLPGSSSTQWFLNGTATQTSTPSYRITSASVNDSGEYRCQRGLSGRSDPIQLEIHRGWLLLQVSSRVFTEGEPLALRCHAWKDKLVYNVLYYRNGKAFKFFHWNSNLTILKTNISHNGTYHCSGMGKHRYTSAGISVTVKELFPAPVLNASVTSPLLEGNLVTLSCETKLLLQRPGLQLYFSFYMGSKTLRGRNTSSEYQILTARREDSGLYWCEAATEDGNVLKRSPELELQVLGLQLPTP

B1: SYB-010 (antibody, human IgG1, kappa)
heavy: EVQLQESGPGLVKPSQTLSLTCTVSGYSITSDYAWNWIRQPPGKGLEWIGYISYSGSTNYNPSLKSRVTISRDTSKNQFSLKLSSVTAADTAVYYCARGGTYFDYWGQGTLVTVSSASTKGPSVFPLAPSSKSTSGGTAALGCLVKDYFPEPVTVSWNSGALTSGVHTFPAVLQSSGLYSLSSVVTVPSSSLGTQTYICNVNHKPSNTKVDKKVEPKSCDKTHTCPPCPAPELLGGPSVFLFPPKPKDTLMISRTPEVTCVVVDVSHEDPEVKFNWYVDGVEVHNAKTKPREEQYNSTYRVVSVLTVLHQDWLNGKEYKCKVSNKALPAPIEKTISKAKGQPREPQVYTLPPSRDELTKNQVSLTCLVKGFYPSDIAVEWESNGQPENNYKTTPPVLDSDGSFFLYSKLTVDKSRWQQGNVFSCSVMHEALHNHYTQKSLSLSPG
light: DVVMTQSPSTLSASVGDRVTITCRASAHINNWLAWYQQKPGKAPKLLISDATSLESGVPSRFSGSGSGKEYTLTISSLQPDDFATYYCQHYWSTPWTFGQGTKVEIKRTVAAPSVFIFPPSDEQLKSGTASVVCLLNNFYPREAKVQWKVDNALQSGNSQESVTEQDSKDSTYSLSSTLTLSKADYEKHKVYACEVTHQGLSSPVTKSFNRGEC
notes: also called SYB-010 Fc wildtype
With B1 the Kd [1] was 0.021 µM, the koff [1] was 0.0394 s⁻¹ and the kon [1] was 1.88e+06 M⁻¹ s⁻¹. For the same binder, the Kd [2] was 0.00098 µM, the koff [2] was 0.000627 s⁻¹ and the kon [2] was 639000 M⁻¹ s⁻¹. For the same binder, the Kd [3] was 0.00161 µM, the koff [3] was 0.00133 s⁻¹ and the kon [3] was 825000 M⁻¹ s⁻¹. The Kd [4] was 1.54 µM, the koff [4] was 0.772 s⁻¹ and the kon [4] was 500000 M⁻¹ s⁻¹.

B2: SYB-011 (antibody, human IgG1, kappa, L234A L235A)
heavy: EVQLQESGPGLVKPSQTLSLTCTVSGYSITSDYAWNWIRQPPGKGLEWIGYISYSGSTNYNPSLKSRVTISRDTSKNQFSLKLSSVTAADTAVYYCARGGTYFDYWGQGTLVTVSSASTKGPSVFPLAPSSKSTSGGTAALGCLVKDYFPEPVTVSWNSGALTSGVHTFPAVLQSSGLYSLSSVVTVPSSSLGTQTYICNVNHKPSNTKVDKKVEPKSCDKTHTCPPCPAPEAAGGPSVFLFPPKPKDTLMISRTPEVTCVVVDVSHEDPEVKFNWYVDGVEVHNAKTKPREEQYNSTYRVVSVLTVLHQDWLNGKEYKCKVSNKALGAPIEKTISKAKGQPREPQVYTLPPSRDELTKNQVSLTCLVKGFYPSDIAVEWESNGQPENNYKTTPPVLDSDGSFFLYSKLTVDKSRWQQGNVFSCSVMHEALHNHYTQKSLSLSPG
light: B1 light
notes: Positions are EU index numbers; also called SYB-011 Fc mutant; effectorless anti-MIC antibody
With B2 the binding result [5] was “no binding”, the binding result [6] was “no binding” and the Kd [1] was 0.0198 µM. The koff [1] was 0.0939 s⁻¹, the kon [1] was 4.74e+06 M⁻¹ s⁻¹ and the Kd [2] was 0.00104 µM. For the same binder, the koff [2] was 0.000617 s⁻¹ and the kon [2] was 596000 M⁻¹ s⁻¹.

— patent publication US20250230246A1 (SAMYANG BIOPHARM USA, published 2025)
